# Positions count from the first letter of the chain named. Names and notes keep the numbering of the source. Where a SMILES comes first, the peptide text is derived from it. [ ]: non-standard residue; d: D form.
# B1: PRL-1: recombinant wild-type human PRL-1 protein containing the C-terminal NCC motif (protein, UniProt Q93096 1-170, looked up)
# Protein tyrosine phosphatase …: MARMNRPAPVEVTYKNMRFLITHNPTNATLNKFIEELKKYGVTTIVRVCEATYDTTLVEKEGIHVLDWPFDDGAPPSNQIVDDWLSLVKIKFREEPGCCIAVHCVAGLGRAPVLVALALIEGGMKYEDAVQFIRQKRRGAFNSKQLLYLEKYRPKMRLRFKDSNGHRNNC
# B2: Apo PRL-1: PRL-1 protein without bound metal (protein, UniProt Q93096 1-170, looked up)
# Protein tyrosine phosphatase …: B1 Protein tyrosine phosphatase …
# modifications: apo form, no bound metal
# B3: PRL-1-H166A: PRL-1 mutant with His166 of the NGH motif replaced by Ala (protein, UniProt Q93096 1-170, looked up, variant H166A)
# Protein tyrosine phosphatase …: B1 Protein tyrosine phosphatase … with H166A
# B4: C170S: PRL-1 mutant with Cys170 replaced by Ser (protein, UniProt Q93096 1-170, looked up, variant C170S)
# Protein tyrosine phosphatase …: B1 Protein tyrosine phosphatase … with C170S
# Tests used:
# [1] = UV-Vis absorption spectroscopy of Ni coordination; assay type: binding
# Method: UV-Vis absorption spectra were used to measure the concentration of the PRL-1 protein. Briefly, the concentrations of purified PRL-1 analogs were measured at 280 nm and calculated using an extinction coefficient of 19420 M^−1 cm^−1. Because of possible metal-protein absorption interferences in the high 200 nm region, the validity of the UV-Vis quantification method was confirmed by the Bradford method. Spectra of PRL-1 analogs at concentrations of 10, 5, 2.5, and 1.25 mg/mL were collected on a Cary 100 UV-Vis spectrophotometer from 800 to 200 nm. […] The resulting spectra were resolved and peak positions were evaluated using GRAMS/AI 7.00 software. Three methods were aimed at metal displacement. In the first, PRL-1-WT (e.g., wild type) samples were reduced using 20 mM β-mercaptoethanol (BME), and imidazole was added to a concentration of 10 mM. For […] protein samples, this corresponds to […] solution excess of BME to compete with the two C-terminal cysteine thiols and a 200-fold solution excess of imidazole to compete with the single C-terminal histidine imidazole side chain. New baselines were taken and the spectra recalculated. In the second method, baselines were recalculated for buffer containing 100 μM EDTA, and the spectrum for the PRL-1-WT sample that was exchanged ten million fold in 100 μM EDTA was recorded. […]
# [2] = ICP-MS of metal bound to purified PRL-1 variants (Ni); assay type: binding; details: for Ni bound (ICP-MS): PRL-1 variants analyzed in parallel, Ni-IMAC purified
# Method: (§1) ICP-MS was used to characterize the bound metal. Briefly, purified protein samples were digested in concentrated nitric acid in PFA microcentrifuge tubes (Savillex, #s 7240, 7241) at 68±1° C. for 16.5±0.7 hours. Based on protein quantification prior to digestion, the sample was then diluted to 1.5 μM in 20 mM ammonium bicarbonate, pH 8.2, filtered through a 0.2 μm nylon filter, and injected into a VG Elemental VGII+XS Inductively-Coupled Plasma-Mass Spectrometer fitted with a microconcentric nebulizer. A minimum of two separately prepared samples were analyzed for each protein variant. Each sample was scanned twice and standards were run before, between, and after each sample scan. Drift was monitored during washes between scans of both sample and standard injections.
# To investigate our hypothesis that the chromophore arises from protein abstraction of the metal from the charged IMAC matrix, samples were subjected to ICP-MS for semi-quantitative analysis. As extensive washing is used to remove background metals, the values obtained from this method inherently underestimate the amount of metal bound, but can be used to assess the relative affinity of different metals for the protein. Additionally, to identify an endogenous metal ligand that may have been bound to PRL-1 during expression in the cells, ICP-MS was used to look for the presence of a transition metal from the first two rows in the periodic table as well as other common biologically relevant metals. […] On average 500 μM Ni-purified protein samples were digested in nitric acid for 16 h at 70° C. were determined to contain approximately 180 μM Ni, yielding a Ni to protein stoichiometry of 1:2.7+/−0.7. Zn was also detected in the Ni-purified samples at approximately 60 μM. […] Because ICP-MS analysis is conducted in a flow of Ar and the most abundant isotope of Ar has the same mass as Ca, Ca binding cannot be determined from the primary mass signal. Nonetheless, because a much higher amount of Ca was present in the cell culture media compared to Zn and yet the ICP-MS signal corresponds largely to zinc, the protein is unlikely to bind calcium.
# [3] = Metal displacement from Ni-purified PRL-1 followed by UV-Vis (BME, imidazole, EDTA, guanidinium hydrochloride/heat); assay type: physicochemical
# Method: UV-Vis absorption spectra were used to measure the concentration of the PRL-1 protein. Briefly, the concentrations of purified PRL-1 analogs were measured at 280 nm and calculated using an extinction coefficient of 19420 M^−1 cm^−1. Because of possible metal-protein absorption interferences in the high 200 nm region, the validity of the UV-Vis quantification method was confirmed by the Bradford method. Spectra of PRL-1 analogs at concentrations of 10, 5, 2.5, and 1.25 mg/mL were collected on a Cary 100 UV-Vis spectrophotometer from 800 to 200 nm. […] The resulting spectra were resolved and peak positions were evaluated using GRAMS/AI 7.00 software. Three methods were aimed at metal displacement. In the first, PRL-1-WT (e.g., wild type) samples were reduced using 20 mM β-mercaptoethanol (BME), and imidazole was added to a concentration of 10 mM. For 0.5 mM protein samples, this corresponds to 400-fold solution excess of BME to compete with the two C-terminal cysteine thiols and a 200-fold solution excess of imidazole to compete with the single C-terminal histidine imidazole side chain. New baselines were taken and the spectra recalculated. In the second method, baselines were recalculated for buffer containing 100 μM EDTA, and the spectrum for the PRL-1-WT sample that was exchanged ten million fold in 100 μM EDTA was recorded. Finally, 10 mg/mL protein samples were denatured in 5.6 M guanidinium hydrochloride and heated to 90° C., new baselines were taken, and the spectra were collected at 0, 2, 4 and 6 hrs.
# [4] = ICP-MS of metal bound to purified PRL-1 (Zn); assay type: binding
# Method: as §1
# To investigate our hypothesis that the chromophore arises from protein abstraction of the metal from the charged IMAC matrix, samples were subjected to ICP-MS for semi-quantitative analysis. […] On average 500 μM Ni-purified protein samples were digested in nitric acid for 16 h at 70° C. were determined to contain approximately 180 μM Ni, yielding a Ni to protein stoichiometry of 1:2.7+/−0.7. Zn was also detected in the Ni-purified samples at approximately 60 μM. […]
# [5] = Solubility of metal-free protein; assay type: physicochemical; details: metal-free (apo) protein
molecule,measurement,setting,value
NC(=O)C[C@@H](N)C(=O)N[C@H](CS)C(=O)N[C@H](CS)C(=O)O [NCC] (H-[dN]-[dC]-[dC]-OH),absorbance spectrum after incubation with metal-charged IMAC resin,[1]; synthetic tripeptides,mimics that observed for the peptide-metal complex embedded in PRL-1
B1,Ni bound (ICP-MS),[2],approximately 120 μM
same,Ni content (ICP-MS),"[2]; on average 500 μM Ni-purified protein, nitric acid digest 16 h at 70° C.",approximately 180 μM
same,"loss of peaks at 318, 421 and 526 nm (Ni release)",[3]; 5.6 M guanidinium hydrochloride at 90° C.,only gradually disappear over 6 hrs
same,effect of 10 mM imidazole on absorption profile,[3]; Ni-purified,no effect
same,effect of ten million-fold exchange into 100 μM EDTA on spectrum,[3]; Ni-purified,little effect
same,effect of 20 mM BME on absorption profile,"[3]; Ni-purified, pH 7.4",did not alter
same,reversibility of Ni binding,[3]; pH 7.4,irreversible
same,Zn detected (ICP-MS),[4]; Ni-purified samples,approximately 60 μM
same,Zn present (ICP-MS),[4]; purified using Zn-IMAC,270 µM
B2,solubility,[5],poorly soluble
B3,decrease in signal by absorption spectroscopy,"[1]; relative to wild-type PRL-1, Ni-purified",20%
same,Ni bound (ICP-MS),[2],~60 µM
B4,Ni bound (ICP-MS),[2],No Ni was detected

# Source: US8110402B2, “Metal abstraction peptide (MAP) tag and associated methods” (University of Kansas, priority 2008, dated 2012)
